The DeepSol protein solubility set

Experiment: soluble on expression in E. coli; label from the status in PepcDB or PDB records

| Sequence | soluble on expression in E. coli |
| --- | --- |
| MGSDKIHHHHHHMIQNTFNIAGGVARNPLVRLAAPITATISAGEHIAIVGPNGGGKSLFVDTLIGKYPLREGTLQYDFSPAATQTVYDNVKYIAFRDTYGAADANYYYQQRWNAHDQDEAPDVREMLGEIKDEQLKQELFELFRIEPMLDKKIILLSSGELRKFQLVKTLLTAPRVLIMDNPFIGLDAPTRELLFSLLDRLTKMSSVQIILVLSMLDDIPSFITHVIPVDKMTVYPKMEREAYLEAFRSRDAAVSFDELQQRIVNLPYDGNNYDSDEVVKLNKVSIRYDDRTILKDLDWTVRRGEKWALSGENGAGKSTLLSLVCADNPQSYACDISLFGRKRGTGESIWEIKKHIGYVSPEMHRAYLKNLPAIEIVASGLHDSIGLYKRPQPEQMAICEWWMDIFGIAELKDNPFLQLSSGEQRLALLARAFVKDPELLILDEPLHGLDTYNRRRVKKIIEAFCHRKDKTMIMVTHYESELPGTITDRIFLKRNR | not soluble |
| MKLDIKKDLKNIAWHCTMCGGCCDSPSVSKKDVANIAGFLKIPFDEVVKKYLVNFDGMTGRLKTSKEKCIFLDENNKCKIYRVRPIICRLRPYSVQIKDQNLVLTYDGWFLENCKGLFMGDLDPDEEYYKHAETVLKYLGEEENTPEEFFEKAKKRLKKSKKLEHHHHHH | soluble |
| MGSDKIHHHHHHMVLSGSPYERGFQHGNRFADLISQALDRRLASLSAADLSQAHKRASDVLATIDVMAPHVGTELRGIADGAGREVSGIVLRSSFELLASPTATGCSGLAVQTRDGALIAQNWDGPLGSDVEQALFIHVGTSGFEFATVAAVGALGWVGFNRAGFGFVNNDLVLKSRCDGIPSQIVRRVFLGCPDVNAAVEAAKSLPHMAGRAYLFGDASNKIASIEVSARHGVSVCRSGSFLAHTNHALNDQIRADEDAELLARQYPSSQKRLEVLKMREAGCADACEVMDILRDRTNAPDSVCKQTSLREPTQTAFSVVMQCRNRTLFLVRGMPSATEYQRISL | not soluble |
| MSLKNEKQDITLWIAPNNVQEAFWSEVVGEWNKQPDKKKVVFSTIPAAGSSEEAIMNAIASDRAPDISENIFTGFGSQLADLGQVVDLSTLDGYENLISTRQMTDIMDNWRYNGKNYILPIYMNPVLFWWRGDLLKEQGFSEVPKTYDEVYALSEKYTIPDKRYAIQATSGRNWWDRWFDFIALYYAQSDGKPYIANQQASYDNQAGRDVLDFMHTLFSKKWTLYDFGQDDPLVTGKVLGAVRGPWDISRYQQQYPEILKHIKMGPMLVKEQQDKPHTFADGKGLVLFSHSKVKPEAWEFIQWVFSQPKFDKRWMELTGMPPARADLLTNPFFAEYYQEHPYAAAYAEYVNVAIPPVSSGETVEIQRSMTQMIEKTAFNTSTPDEALQQSIKEVNAILKEGHHHHHH | soluble |
| MGHHHHHHSHGRLTLSAQHISHRPCLLSYSLLFWKVHHLFLEGFPCSPRLDEMSFHQFPQHPVHVSVVHLPIVYKGSMTQVSPH | not soluble |
| MNDGKISILVLGADKAQGGQSRTDSIMVVQYDFINKKMKMMSVMRDIYADIPGYGKHKINSAYALGGPKLLRKTLDKNLGINPEYYAVVDFTGFEKMIDELMPEGVPINVEKDMSKNIGVSLKKGNHRLNGKELLGYARFRHDPEGDFGRVRRQQQVMQTLKKEMVNFRTVVKLPKVAGILRGYVNTNIPDSGIFQTGLSFGIRGEKDVKSLTVPIKNSYEDVNTNTDGSALQINKNTNKQAIKDFLDEDLEHHHHHH | soluble |
| MTARYIAIDWGSTNLRAWLYQGDKCLESRQSEAGVTRLNGKSPDAVLAEVTTHWRDSATPVVMAGMIGSNVGWQNAPYLPVPALFSAIGEQLTAVGDNIWIIPGLCVSREDNHNVMRGEETQLLGACELSPSSVYVMPGTHCKWVQTDTQQIHDFRTVMTGELHHLLLRHSLVGAGLPEQEVSGDAYAAGLERGLNSPAVLPSLFEVRASHVLGHLAREQVSDFLSGLLIGAEVASMSESFAAQQAITLVAGPALISRYQQAFSAIGRDVSTVDGDMAFQAGIRSIAHAVAN | not soluble |
| MGNLICTKNGGEPEIMVAAHMDEIGFAVKYIDDKGFIRIAPIGGWFSQIALAQRVVLYGKKKVYGVIGCKPPHLMKDEERKKGIEIKDMFVDIGASSKEEVLEMGINVGTPVALDREIVELANGRITGKAFDNRVGVAVMIEAVRRAKADITIHAVATVQEEVGLKGARTSAFAIEPTAAIAVDTCVAADFPGSESAHMDVKLGKGAAITVIDASGRGLIASPKVLRWLTETAEKYGIPYQLEVAEGGTTDATAIHLTKAGIPAGVVSVPARYIHSPVEVVDLKDVESAVEIVARAIENAKNYF | soluble |
| SAAAMAEQEGSKGSARNRGGVQRVEGKLRASVEKGDYYEAHQMYRTLFFRYMSQSKHIEARELMYSGALLFFSHSQQNSAADLSMLVLESLEKHEVKVTEELLENLAKLFSLMDPNSPERVAFVSRALKWSSGGSGKFGHQKLHQFLAITLWKEQNYYESRYHFLHSSDGEGCANMLVEYSSTRGYRSEVDMFVAQAVLQFLCLKNKTSASVVFTTYTQKHPSIERGPPFVQPLLNFIWFLLLAVEGGKLTVFTVLCEQYQPSLKRDPMYNEYLDRIGQLFFGLPPKQSSSYGGLLGNLLNSLMGSGEDDDVEDGQEDSSPIELD | soluble |
| MPPRRDLKKILIIGSGPITIGQAAEFDYSGTQAVKALRGAGYRVVLVNSNPATIMTDPELAERTYIEPLDLEHLEGILAREAPDALLPTLGGQTGLNLAMALHEEGILQKYGVELIGAKAEAIRKGEDREAFQEAMQRIGLEVPRGQLVGSVEEGLHFAREVGFPVVVRPSFTLGGTGGGIAHDEAELVEVLSRGLTLSPVHTALVEESVLGWKEFELEVMRDHADTVVIITSIENVDPMGVHTGDSITVAPAQTLSDVEYQRMRDAAKAIIREIGVETGGSNIQFAVDPKTGRQVVIEMNPRVSRSSALASKATGFPIAKIAALLAVGYRLDELPNDITRKTPASFEPTIDYVVVKIPRFAFEKFRPLRNTLGELKDELTTQMKSVGEVMAIGRTFKEALMKALRGLERDVRALAGVRTEELEKKLYPNPDRVYAVMELLRRGMPVEELYQATRIDPWFLHQMKEVVEAEEWLKTHPPKDREDWRFYKGLGLTDRRIGELVGKGEKEVRAERKALGVVPVYKTVDTCAAEFEAYTPYHYSTYELEDEVWPSQKPKVVILGSGPIRIGQGVEFDYATVHAVWALKEAGYETIMVNSNPETVSTDYDTADRLYFEPLTLEDVLNIVEHEKPIGVIATLGGQTPLKLAKGLEEAGVRLLGTPFSAIHQAEDREAFHALCQRLGIPQPEGRVAQSPEEALRLAPEVGFPLLVRPSYVLGGRAMQVVRDEGELKRYLEEVYAPLEERPSILLDRFLEGAVELDVDALSDGQEVMVAGIMEHVERAGVHSGDSATLLPPVHVPEEALKKVRDYTRRLALALGVRGLLNVQYAVVGEEVYVLEANPRASRTVPFVSKAIGVPLAKLAALIAVGKTLKELGVRDLDPVPPYYAAKEVVIPWIKFPGVIPELGPEMRSTGESMGIDQDPYLAYYKAELGAGQRLPLSGRVRFIGEGLEDLKALYQEAGFALTEGEDYDLLISLVPDPELRRAVERGLPFITTREGAWWSLKAILRARESGLRVQSLQDWHQKAPRG | soluble |
| MGSDKIHHHHHHMTTDGQLAYQQTCDYPIEERQSEQQVIRQYLPLIKRIVSQMRSHCGVMLSLEDMEQIGMMALLESSRRYPGELDNGFISFAGQRIRGAILDELRRQDWRPRPVRQQAHELNDVVRRLSREMGREPSDLEVASALGLSAEDYRERLYSTQAESMKSLDELLLVGEHPVDRGNDVEQLMLKQTLIKVISKLNEREQLILSLYYHHELNLKEIAMALGLTETRICQLHKSAISQLKTILQR | not soluble |
| RIPVKYGNADGEYCKFPFLFNGKEYNSCTDTGRSDGFLWCSTTYNFEKDGKYGFCPHEALFTM | soluble |
| MGSDKIHHHHHHMQLQELHMLVVLAEELNMRKAAERLFVSQPALSQRLQTIEKAWGTKIFLRSQKGLTVTPAGEKIIQFANDVTLEQERIRENIDELEGEIHGTLKLAVASIIGQHWLPKVLKTYVEKYPNAKISLITGWSSEMLKSLYEDQVHIGIIRGNPEWKGRKDYLMTDHLYLVDTEISCIEDIAHTERPFIQFKSDSTYFQEIQHWWHQKFKTSPKQTILVDQIETCKQMALHGIGYAILPSVTLQNEDKVNKMPLLDMKGHPIGRDTWLLGYEPAFELKQVQAFVQVIKDMLDQENPF | not soluble |
| MSLKYQLRFGGEGGQGVITAGEILAEAAIKEGRQAFKASTYTSQVRGGPTKVDIIIDDKEILFPYAVEGEVDFMLSTADKGYKGFRGGVKEGGIIVVEPNLVHPESEDYKKWQIFEIPIITIAKDEVGNVATQSVVALAIAAYMSKCIDLDVLKETMLHMVPAKTRDANAKAFDLGVKYATQAKPHEGHHHHHH | soluble |
| MGSDKIHHHHHHMADYTKMWSELGLDLKSHDALLSILGSAYGDIFLSQKDRPEGMKYFDFVMSEVHGLRIQELMEAKARGRIVVGSYCVFVPEELILAVDGVSVGLCAGAEFNFEGAEEVLPRNTCALIKSAFGFKFGKVCPYLEACDVVVGENTCDGKKKAYEILGPLVTDLYVIDLHQTKSDMGRALLKEEYRRFAAKLESVSGKKITPDSLKKGIEVVNAKRMAVKRLAAIRAADPAPISGLDALLVNQVFFYDDPVRFTHSVNQLCDELEERVKQGIGVFAQGTTRVIVSGCPMAVPNWKLPMLIESSNAVIVGEESCVGERGTRWLTEFRGETEEDLLDALTERYFSIDCAVFTPNPSRVDYVKEMTKKLNAQGVIHYSLQFCQPHMVESGPVEKELEKSGIPTLRLETDYSQEDAGQLKTRIEAFVERLENK | not soluble |
| SLRITLEFTGEKNLILPIHYNYIVQGLLYDLMGDTDFAAFLHDVGFQYEKRRFKLFTFSRIEGEFQIVEKPNGQKKIIIKPPFKFTVASPLEEVIIDISKNILKREYCHFNGQKFTLNSLNIENPPIFKEKARIKFISPVVMYTTLRNGEKKYTYYYSPWDEKFSPLLLNNLVKKYELVYKIKPKNPHFKLIPLTEKEDRRYSKVIKYKNVYVKGWMGIYDVETTPELLELAYYTGLGAKNSQGFGCFEIIG | not soluble |
| IIYKETKPEEYNLRNPVVTQDYTVSMSGGNDRGTYYASLGYNDSPGAPITTEYTRYNFTFNGSYKIADWLKTTSNATFSRANYVWLNNDWGTEADYFGRVMSSPPTVRFEDEDGNSTLGPSPGDGNQTYVARSYDQDNERTKLTLMQSVEANLFKGLVLRASASWYYFHTVEENMRKDYETVPGQWDRTRSTSASYSRQFSQTYNAVLDYTTTFATSHNLNVMLGSEFYDQYNNGFSASGFGASTDDFKKLGLTDAGEGKRSIDSSHSRYRILSYFGRLNYDYEGKYLFSGVFRYDGYSSLLGKNRWGFFPGVSGGWVFTKEDFVKESLPFLYYGKLRASYGLNGNASGIGPYTLQGSYNSNKYHGNNGFLIGALPNPSLRWEKTASFDIGLNVGLLDGRLNLDIDYYNRLTSDKYADLTLPSTTGFSSIRNNNGKLRNRGIELQLSGKIMETRDFTWDASLNITYNKNKIIALPYNKEPRNRQEGQQVYTGRKIANPETGVFEDEKVWVGGFQEGMEYGVLVGYQAEGIYQSMDDIPGDLVVKSGNAQGKYQYGPDAWKRLSAAEQAKGVEIKPGDMKWKDVNGDGMIDQYDQVVIGNTTPRWFGGFNTTMSWKGLSLYARFDFALDYWVYDNQTPWLLGCMQGTYNTTKDVFNTWNESNPNAKYPRYVYGDQLGTANYNRTSTLFASKGNYLGVRELSLSYTLPQELSKKLYMQKLQFSITGQNLGYLTSARTVSPEISSGYPLPRTVILGVNVTF | not soluble |
| MAHHHHHHMYAIADTDDILIRSNPCRLSVNGVHISVCNEDVVGDMRDRMVERWPTADGSLRRVVEALVNGRLYVPLYSLPVATADLKHLPHLRMDYVPSQNELLEIKPAAAALASSTATKGDRRGNADGSDATTSTSGASSSRGWETVFSVAEQPSTDMAAWLQHKVKRAKLEDAAGDNEEGDAASAPGGPVTPSTPTASSKTEYLPHIMFLPSTRPQFATVTHQSEEVDGADIDSAESASGVLVVNQEVWSTRSSPKFELRVAEVTIPNTDLVLRRGATSTNGVTCGVLHIYSA | soluble |
